# Tests used:
# Assay in all cases: cell-based or functional assay
# [1] = target: HIV-1 Env of isolate MGRM-F1-006 (pseudovirus) (HIV-1)
# [2] = target: HIV-1 Env of isolate VLGCB3 (subtype B pseudovirus) (HIV-1)
# [3] = target: HIV-1 Env of isolate APV_6 (subtype B pseudovirus) (HIV-1)
# [4] = target: HIV-1 Env of isolate MGRM-F1-022 (HIV-1)
# [5] = target: HIV-1 Env of isolate MGRM-Chronic-B-003 (subtype B pseudovirus) (HIV-1)
# [6] = target: HIV-1 Env of isolate MGRM-D-008 (pseudovirus) (HIV-1)
# [7] = target: HIV-1 Env of isolate MGRM-F1-018 (HIV-1)
# [8] = target: HIV-1 Env of isolate MGRM-Chronic-B-020 (subtype B pseudovirus) (HIV-1)
# [9] = target: HIV-1 Env of isolate TRJ04551.58 (subtype B pseudovirus) (HIV-1)
# [10] = target: HIV-1 Env of isolate MGRM-Chronic-B-008, clade B, on pseudovirus (HIV-1)
# [11] = target: HIV-1 Env of pseudovirus MGRM-AG-003 (clade CRF_AG) (HIV-1)
# [12] = target: HIV-1 envelope glycoprotein (Env) of isolate MGRM-A-006, clade A (HIV-1)
# [13] = target: HIV-1 Env of isolate SC422661.8 (Acute), clade B, on pseudovirus (HIV-1)
# [14] = target: HIV-1 Env of pseudovirus MGRM-F1-018 (HIV-1)
# [15] = target: HIV-1 Env of isolate MGRM-Chronic-B-002, clade B, on pseudovirus (HIV-1)
# [16] = target: HIV-1 envelope glycoprotein (Env) of isolate MGRM-A-001, clade A (HIV-1)
# [17] = target: HIV-1 Env of isolate MGRM-D-029 (clade D pseudovirus) (HIV-1)
# [18] = target: HIV-1 envelope glycoprotein (Env) of isolate 94UG103, clade A (HIV-1)
# [19] = target: HIV-1 envelope glycoprotein (Env) of isolate 92UG031, clade A (HIV-1)
# [20] = target: HIV-1 CMU02 envelope glycoprotein (Env) on pseudovirus (HIV-1)
# [21] = target: HIV-1 Env of pseudovirus MGRM-F1-020 (HIV-1)
# [22] = target: HIV-1 Env of isolate MGRM-D-013 (clade D pseudovirus) (HIV-1)
# [23] = target: HIV-1 92BR020 Env (pseudovirus) (HIV-1)
# [24] = target: HIV-1 JRCSF Env (pseudovirus, clade B) (HIV-1) (UniProt P20871)
# [25] = target: HIV-1 MGRM-A-010 Env (pseudovirus, clade A) (HIV-1)
# [26] = target: HIV-1 Env of isolate MGRM-D-018 (clade D), on pseudovirus (HIV-1)
# [27] = target: aMLV envelope (pseudovirus, negative control)
# [28] = target: HIV-1 NL43 Env (pseudovirus, clade B) (HIV-1)
# [29] = target: HIV-1 93UG077 Env (pseudovirus, clade A) (HIV-1)
# [30] = target: HIV-1 Env of isolate MGRM-G-014 (HIV-1)
# [31] = target: HIV-1 Env of isolate MGRM-G-028 (HIV-1)
# [32] = target: HIV-1 Env of isolate MGRM-G-001 (HIV-1)
# [33] = target: HIV-1 Env of isolate MG RM-D-021 (HIV-1)
# [34] = target: HIV-1 Env of isolate MG RM-D-019 (HIV-1)
# [35] = target: HIV-1 Env of isolate 92BR020 (HIV-1)
# [36] = target: HIV-1 Env of isolate 92UG005 (HIV-1)
# Sequence of 4993_K13 (PGT-141) (antibody) (VH): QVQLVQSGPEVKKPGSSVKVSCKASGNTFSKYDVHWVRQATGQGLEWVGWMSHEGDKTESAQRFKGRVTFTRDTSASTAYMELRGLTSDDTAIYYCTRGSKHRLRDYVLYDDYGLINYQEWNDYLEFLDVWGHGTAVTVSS
# Sequence of 4993_K13 (PGT-141) (antibody) (VL): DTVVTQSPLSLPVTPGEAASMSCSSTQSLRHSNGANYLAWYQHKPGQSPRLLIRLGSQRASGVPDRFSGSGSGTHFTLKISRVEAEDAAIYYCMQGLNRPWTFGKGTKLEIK
# Sequence of 4970_K22 (PGT-144) (antibody) (VH): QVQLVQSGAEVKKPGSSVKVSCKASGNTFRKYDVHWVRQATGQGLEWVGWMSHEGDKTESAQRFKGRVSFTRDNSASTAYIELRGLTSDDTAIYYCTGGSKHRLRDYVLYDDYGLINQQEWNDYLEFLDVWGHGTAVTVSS
# Sequence of 4970_K22 (PGT-144) (antibody) (VL): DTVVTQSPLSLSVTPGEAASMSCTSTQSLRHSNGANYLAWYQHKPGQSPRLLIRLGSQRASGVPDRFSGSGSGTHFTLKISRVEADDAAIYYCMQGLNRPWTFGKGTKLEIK
# Sequence of 4995_E20 (PGT-142) (antibody) (VH): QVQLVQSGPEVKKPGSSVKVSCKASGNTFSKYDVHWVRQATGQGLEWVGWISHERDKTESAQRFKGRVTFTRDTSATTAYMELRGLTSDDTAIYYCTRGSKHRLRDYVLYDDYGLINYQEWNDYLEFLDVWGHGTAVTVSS
# Sequence of 4980_N08 (PGT-143) (antibody) (VH): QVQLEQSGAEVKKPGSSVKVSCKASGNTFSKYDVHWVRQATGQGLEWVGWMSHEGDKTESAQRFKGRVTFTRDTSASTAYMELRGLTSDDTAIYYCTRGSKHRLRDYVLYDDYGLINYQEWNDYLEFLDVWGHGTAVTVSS
# Sequence of 4980_N08 (PGT-143) (antibody) (VL): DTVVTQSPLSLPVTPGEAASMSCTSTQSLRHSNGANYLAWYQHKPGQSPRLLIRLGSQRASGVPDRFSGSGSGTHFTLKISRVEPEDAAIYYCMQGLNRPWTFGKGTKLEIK
# Sequence of 1443_C16 (PG16) (TCN-116) (antibody) (VH): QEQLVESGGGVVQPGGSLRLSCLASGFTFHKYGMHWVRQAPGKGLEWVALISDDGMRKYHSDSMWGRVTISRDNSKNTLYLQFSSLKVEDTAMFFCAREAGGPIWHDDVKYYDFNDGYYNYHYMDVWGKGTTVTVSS
# Sequence of 1443_C16 (PG16) (TCN-116) (antibody) (VL): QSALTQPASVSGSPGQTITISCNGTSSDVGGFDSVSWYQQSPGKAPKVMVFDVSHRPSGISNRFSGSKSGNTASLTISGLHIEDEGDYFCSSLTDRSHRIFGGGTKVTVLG
Substance,"IC50 (µg/ml), pseudovirus neutralization [10] [µg/mL]",IC50 [11] [µg/mL],"IC50 (µg/ml), pseudovirus neutralization [12] [µg/mL]","IC50 (µg/ml), pseudovirus neutralization [13] [µg/mL]","IC50 (µg/ml), pseudovirus neutralization [14] [µg/mL]","IC50 (µg/ml), pseudovirus neutralization [15] [µg/mL]","IC50 (µg/ml), pseudovirus neutralization [16] [µg/mL]","IC50 (µg/ml), pseudovirus neutralization [17] [µg/mL]","IC50 (µg/ml), pseudovirus neutralization [18] [µg/mL]","IC50 (µg/ml), pseudovirus neutralization [19] [µg/mL]","IC50, pseudovirus neutralization [20] [µg/mL]","IC50 (µg/ml), pseudovirus neutralization [21] [µg/mL]","IC50 (µg/ml), pseudovirus neutralization [22] [µg/mL]",neutralization IC50 (pseudovirus) [23] [µg/mL],"IC50 (µg/mL), pseudovirus neutralization [30] [µg/mL]","IC50 (µg/mL), pseudovirus neutralization [31] [µg/mL]","IC50 (µg/mL), pseudovirus neutralization [32] [µg/mL]",also measured
5145_B14 (PGT-127) (antibody),–,–,–,–,–,–,–,–,–,–,–,–,–,–,–,–,–,"IC50, pseudovirus neutralization [1]: 7.17 µg/mL; IC50 (µg/mL), pseudovirus neutralization [2]: 0.022 µg/mL; IC50 (µg/mL), pseudovirus neutralization [3]: 0.04 µg/mL; IC50 (µg/mL), pseudovirus neutralization [4]: > 50 µg/mL; IC50 (µg/mL), pseudovirus neutralization [5]: 0.12 µg/mL; IC50, pseudovirus neutralization [6]: > 50 µg/mL; IC50 (µg/mL), pseudovirus neutralization [7]: 3.59 µg/mL; IC50 (µg/mL), pseudovirus neutralization [8]: 0.05 µg/mL; IC50 (µg/mL), pseudovirus neutralization [9]: 0.063 µg/mL"
b12 (antibody),2.82,> 50,13.6,6.11,> 50,0.86,> 50,> 50,6.92,> 50,4.25,> 50,> 50,–,–,–,–,–
2F5 (antibody),> 50,0.14,15.7,> 50,3.91,1.25,> 50,> 50,1.92,3.81,0.38,0.59,2.12,–,–,–,–,–
4877_D15 (PGT-122) (antibody),–,–,–,–,–,–,–,–,–,–,–,–,–,0.0337,–,–,–,"IC50, pseudovirus neutralization [1]: 3.27 µg/mL; IC50 (µg/mL), pseudovirus neutralization [2]: 0.008 µg/mL; IC50 (µg/mL), pseudovirus neutralization [3]: 0.019 µg/mL; IC50 (µg/mL), pseudovirus neutralization [4]: 0.277 µg/mL; IC50 neutralization [24]: 0.0727 µg/mL; IC50 (µg/mL), pseudovirus neutralization [5]: 0.008 µg/mL; IC50 neutralization [25]: 1.68 µg/mL; IC50, pseudovirus neutralization [6]: > 50 µg/mL; IC50, pseudovirus neutralization [26]: 0.0115 µg/mL; neutralization IC50 (pseudovirus) [27]: > 10 µg/mL; IC50 neutralization [28]: > 10 µg/mL; IC50 neutralization [29]: 0.191 µg/mL; IC50 (µg/mL), pseudovirus neutralization [7]: 0.563 µg/mL; IC50 (µg/mL), pseudovirus neutralization [8]: 0.005 µg/mL; IC50 (µg/mL), pseudovirus neutralization [9]: > 50 µg/mL"
4E10 (antibody),16.7,0.64,9.87,6.35,3.6,2.19,15.1,5.3,4.97,4.94,0.59,0.66,5.38,–,–,–,–,–
1495_C14 (PGC14) (antibody),> 50,> 50,> 50,> 50,> 50,> 50,> 50,> 50,> 50,> 50,> 50,> 50,> 50,–,–,–,–,–
4838_L06 (PGT-121) (antibody),–,–,–,–,–,–,–,–,–,–,–,–,–,–,–,–,–,"IC50, pseudovirus neutralization [1]: 5.33 µg/mL; IC50 (µg/mL), pseudovirus neutralization [2]: 0.005 µg/mL; IC50 (µg/mL), pseudovirus neutralization [3]: 0.018 µg/mL; IC50 (µg/mL), pseudovirus neutralization [4]: 0.104 µg/mL; IC50 (µg/mL), pseudovirus neutralization [5]: 0.011 µg/mL; IC50, pseudovirus neutralization [6]: > 50 µg/mL; neutralization IC50 (pseudovirus) [27]: > 10 µg/mL; IC50 neutralization [28]: > 10 µg/mL; IC50 (µg/mL), pseudovirus neutralization [7]: 0.04 µg/mL; IC50 (µg/mL), pseudovirus neutralization [8]: 0.004 µg/mL; IC50 (µg/mL), pseudovirus neutralization [9]: 7.09 µg/mL"
4980_N08 (PGT-143) (antibody),–,–,–,–,–,–,–,–,–,–,–,–,–,> 10,0.107,43,0.423,–
4970_K22 (PGT-144) (antibody),–,–,–,–,–,–,–,–,–,–,–,–,–,> 10,0.562,> 50,> 50,–
2G12 (antibody),0.55,> 50,13.8,0.84,> 50,> 50,> 50,> 50,48.1,> 50,> 50,> 50,> 50,–,–,–,–,–
4995_E20 (PGT-142) (antibody),–,–,–,–,–,–,–,–,–,–,–,–,–,> 10,0.076,30.3,0.362,–
1496_C09 (PG9) (TCN-109) (antibody),6.66,9.71,–,0.79,0.03,1.41,–,–,0.24,3.08,–,4.55,0.06,–,16.5,0.891,0.166,"IC50 neutralization [25]: 0.0375 µg/mL; IC50, pseudovirus neutralization [26]: 0.0444 µg/mL; IC50 neutralization [28]: 0.687 µg/mL"
VRC01 (antibody),–,–,–,–,–,–,–,–,–,–,–,–,–,–,0.056,0.164,0.0371,IC50 [33]: 33.4 µg/mL; IC50 [4]: 0.055 µg/mL; IC50 [34]: 0.119 µg/mL; IC50 [7]: 0.032 µg/mL
PGV04 (antibody),–,–,–,–,–,–,–,–,–,–,–,–,–,–,0.056,0.352,> 50,"IC50 (µg/mL), pseudovirus neutralization [35]: 0.25 µg/mL"
1443_C16 (PG16) (TCN-116) (antibody),0.73,> 50,> 50,1.13,0.01,3.06,> 50,> 50,0.04,0.43,> 50,4.35,0.11,–,–,–,–,–
5123_A06 (PGT-125) (antibody),–,–,–,–,–,–,–,–,–,–,–,–,–,0.0214,–,–,–,"IC50, pseudovirus neutralization [1]: 0.035 µg/mL; IC50 (µg/mL), pseudovirus neutralization [2]: 0.015 µg/mL; IC50 (µg/mL), pseudovirus neutralization [3]: 0.021 µg/mL; IC50 (µg/mL), pseudovirus neutralization [4]: > 50 µg/mL; IC50 neutralization [24]: 0.006 µg/mL; IC50 (µg/mL), pseudovirus neutralization [5]: 0.157 µg/mL; IC50 neutralization [25]: 0.0055 µg/mL; IC50, pseudovirus neutralization [6]: > 50 µg/mL; IC50, pseudovirus neutralization [26]: 0.0382 µg/mL; neutralization IC50 (pseudovirus) [27]: > 10 µg/mL; IC50 neutralization [28]: > 10 µg/mL; IC50 neutralization [29]: 0.0262 µg/mL; IC50 (µg/mL), pseudovirus neutralization [7]: > 50 µg/mL; IC50 (µg/mL), pseudovirus neutralization [8]: 0.087 µg/mL; IC50 (µg/mL), pseudovirus neutralization [9]: 0.019 µg/mL"
4993_K13 (PGT-141) (antibody),–,–,–,–,–,–,–,–,–,–,–,–,–,> 10,0.222,24.9,0.392,"IC50 (µg/mL), pseudovirus neutralization [36]: > 50 µg/mL"

# — US20250320281A1
